Holding throughout (settings): both partners purified
One test has as its target G3BP1 NTF2 domain (human, UniProt Q13283 11-133).
The target of the next test is T1, G3BP2 NTF2 domain (human, UniProt Q9UN86 11-133).
T1 sequence (looked up): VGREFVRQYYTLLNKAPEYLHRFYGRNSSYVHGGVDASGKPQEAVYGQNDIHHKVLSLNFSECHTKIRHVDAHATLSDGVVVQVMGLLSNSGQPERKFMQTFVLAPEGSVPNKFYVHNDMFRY

Test [1] deals with T2, G3BP2 NTF2 domain, His-GST-tagged (human, UniProt Q9UN86 11-133).
T2 sequence (looked up): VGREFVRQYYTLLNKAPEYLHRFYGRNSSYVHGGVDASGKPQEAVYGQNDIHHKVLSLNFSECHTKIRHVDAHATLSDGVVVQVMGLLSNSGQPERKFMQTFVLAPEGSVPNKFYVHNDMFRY

The target of test [2] is G3BP1 NTF2 domain, His-GST-tagged (human, UniProt Q13283 11-133).
G3BP1 NTF2 domain, His-GST-tagged, sequence (Q13283 11-133): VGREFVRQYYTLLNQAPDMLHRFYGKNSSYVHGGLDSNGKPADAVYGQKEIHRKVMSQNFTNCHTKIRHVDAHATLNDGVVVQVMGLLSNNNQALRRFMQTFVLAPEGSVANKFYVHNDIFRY
Test [3] deals with T3, Radixin FERM domain (human, UniProt P35241 5-295).
T3 construct: also called RDX
T3 sequence (P35241 5-295): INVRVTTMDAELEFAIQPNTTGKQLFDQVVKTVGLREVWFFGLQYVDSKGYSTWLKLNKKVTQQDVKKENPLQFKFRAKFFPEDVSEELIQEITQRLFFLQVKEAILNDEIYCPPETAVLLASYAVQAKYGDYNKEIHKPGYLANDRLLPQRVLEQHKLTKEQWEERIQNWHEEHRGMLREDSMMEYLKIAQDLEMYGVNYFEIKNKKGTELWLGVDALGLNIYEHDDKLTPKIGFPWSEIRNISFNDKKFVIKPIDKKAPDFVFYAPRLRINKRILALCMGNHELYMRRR

The target in test [4] is Ezrin FERM domain (human, UniProt P15311 2-296).
Target sequence in this assay (P15311 2-296): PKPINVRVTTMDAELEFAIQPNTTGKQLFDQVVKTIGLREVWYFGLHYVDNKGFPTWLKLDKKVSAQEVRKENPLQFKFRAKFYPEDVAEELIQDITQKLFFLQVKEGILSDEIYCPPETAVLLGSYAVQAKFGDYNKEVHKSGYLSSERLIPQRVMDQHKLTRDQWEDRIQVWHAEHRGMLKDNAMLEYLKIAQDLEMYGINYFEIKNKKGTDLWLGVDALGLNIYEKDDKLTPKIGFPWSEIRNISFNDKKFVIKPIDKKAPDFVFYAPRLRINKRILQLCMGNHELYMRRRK
A further test has as its target USP7 MATH domain (human, UniProt Q93009 68-195).
The target of test [5] is T4, Radixin FERM domain (human, UniProt P35241 5-295).
T4 construct: also called RDX; RDX FERM
T4 sequence (P35241 5-295): as the sequence (P35241 5-295) above

Test [6] deals with T5, Ezrin FERM domain (human, UniProt P15311 2-296).
T5 construct: also called EZR FERM
T5 sequence (P15311 2-296): as the sequence (P15311 2-296) above

By IC50 is commonly meant the midpoint of a concentration-inhibition curve. High values mean lower potency, low ones higher potency. In general, Ki refers to the equilibrium dissociation constant of an inhibitor or competing ligand from its target. A low value points to a stronger hold on the target. For orientation: Kd means the free concentration of one partner at which half of the binding sites on the other are occupied at equilibrium, for simple one-to-one binding.

Where two headings read alike, the source gives them in different places. Ends that are not written are not given here. * marks the point of attachment. FITC = O=C1OC2(c3ccc(O)cc3Oc3cc(O)ccc32)c2ccc(NC(=S)*)cc21

G3BP1 NTF2 domain, sequence (Q13283 11-133): as the sequence (Q13283 11-133) above
USP7 MATH domain, sequence (Q93009 68-195): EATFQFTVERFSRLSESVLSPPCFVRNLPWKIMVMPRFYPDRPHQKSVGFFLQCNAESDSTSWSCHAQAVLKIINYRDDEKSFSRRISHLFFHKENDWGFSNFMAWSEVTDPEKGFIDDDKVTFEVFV

B1: UBAP2L peptide 515-528 (peptide)
peptide: NLQFGALQFGSEPVY
Consider B1, for which the concentration for half-maximal inhibition (IC50) with G3BP1 NTF2 domain was 104 µM. In addition, in the test with G3BP2 NTF2 domain, the IC50 is 79 µM and the inhibition constant (Ki) was 32 µM.

B2: TRIM25 peptide 400-414 (peptide)
peptide: PSKLPTFGAPEQLVDY
As for B2, in the test with G3BP1 NTF2 domain, the midpoint of inhibition, the IC50, lay at 120 µM and the Ki came to 46 µM. Further, in the test with G3BP2 NTF2 domain, the IC50 was found to be 53 µM and the inhibitory constant (Ki) amounted to 17 µM.

B3: DDIT3 peptide 4-19 (peptide)
peptide: ESLPFSFGTLSSWELE
In the case of B3, in the test with G3BP2 NTF2 domain, the IC50 turned out to be 30 µM and the affinity, expressed as Ki, was 12 µM.

B4: N peptide 6-20 (Mers1) (peptide)
peptide: APRAVTFGDNNDNNTY
Regarding B4, in the test with G3BP1 NTF2 domain, the half-inhibitory concentration (IC50) was found to be 130 µM and the affinity, expressed as Ki, was 51 µM. The molecule also had a half-maximal inhibitory concentration (IC50) with G3BP2 NTF2 domain of 80 µM.

B5: N FITC-APRITFGGPSDS (peptide)
peptide: {FITC}-APRITFGGPSDS
For B5, the Kd in test [1] came out at 2.1 ± 0.1 µM; in test [2], 3.2 ± 0.1 µM.

B6: NSP3 peptide 1996-2011 (Sars-CoV) (peptide)
peptide: VDTSNSFEVLAVEDTQY
In the test with Radixin FERM domain [3], B6 displayed an IC50 of 200 µM and a Ki of 56.2 µM. In the test with Ezrin FERM domain [4], this molecule gave an IC50 of 200 µM and a Ki of 218 µM.

B7: CAPRIN1 peptide 364-379 (peptide)
peptide: AQMQGPYNFIQDSMLD
B7: 29 µM corresponded to half-maximal inhibition with G3BP2 NTF2 domain (IC50).

B8: N peptide 13-27 (Sars-CoV) (peptide)
peptide: APRITFGGPTDSTDNY
B8 displayed an IC50 with G3BP1 NTF2 domain of 10 µM.

B9: FITC-Kirrel3 peptide 668-683 (peptide)
peptide: {FITC}-YYSVNTFKEHHSTPTI
B9 had a Kd with Radixin FERM domain [3] of 0.485 µM.

B10: MDM2 FITC-DYSQPSTSSSIIY (peptide)
peptide: {FITC}-DYSQPSTSSSIIY
notes: also called MDM2 probe peptide
For B10, in the test with USP7 MATH domain, the Kd is 0.49 ± 0.06 µM.

B11: Kirrel FITC-YYSVNTFKEHHSTPTI (peptide)
peptide: {FITC}-YYSVNTFKEHHSTPTI
notes: also called Kirrel probe peptide
For B11, the Kd stood at 0.485 ± 0.003 µM with Radixin FERM domain [5] and 1.4 ± 0.1 µM in the test with Ezrin FERM domain [6].

B12: PRRC2B peptide 1780-1794 (peptide)
peptide: PVPPIEFGVSPKDSDY
In the test with G3BP2 NTF2 domain, B12 showed an IC50 of 53 µM and a Ki of 19 µM.

B13: NSP3 peptide 958-972 (Sars-CoV) (peptide)
peptide: QGLPLEFGASAETVRY
Turning to B13, the results for the half-inhibitory concentration (IC50) with G3BP1 NTF2 domain and with G3BP2 NTF2 domain were 320 µM and 130 µM, respectively. For the same molecule, the Ki with G3BP1 NTF2 domain worked out at 119 µM; with G3BP2 NTF2 domain, 47 µM.

For the origin of these results see paper PMC8605023 (Nature Communications, 2021).
